Data as given in patent publication US9012420B2, “Aptamer for chymase, and use thereof” (Ribomic Inc., priority 2009, dated 2015).

Legend:
[1] = molecular target: T1, chymase (recombinant, manufactured by SIGMA) (Homo sapiens, UniProt P23946); assay: Chymase inhibitory activity using synthetic substrate Suc-Ala-Ala-Pro-Phe-MCA; assay type: biochemical; settings: Table 3; substrate 100 μM, solution C, 37° C.; mean value for 2 to 3 measurements
T1 construct: purchased SIGMA; host or cells: yeast
T1 sequence (P23946 22-247): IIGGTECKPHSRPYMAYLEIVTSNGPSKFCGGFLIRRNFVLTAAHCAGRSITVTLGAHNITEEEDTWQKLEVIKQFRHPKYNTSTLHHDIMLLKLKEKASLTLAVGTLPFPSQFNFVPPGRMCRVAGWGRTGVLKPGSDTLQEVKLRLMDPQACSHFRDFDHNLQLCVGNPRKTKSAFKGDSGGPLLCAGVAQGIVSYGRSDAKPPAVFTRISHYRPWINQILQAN
Summary of the method: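 Human recombinant chymase (16.7 nM or 1.67 nM final) preincubated 5 min at 37° C., then added to nucleic acid (0.0027–2 μM serial dilutions) and 100 μM substrate in solution C. AMC fluorescence (ex 380/em 460 nm) followed 5 or 30 min at 37° C.; slope gives initial velocity, inhibition versus no-inhibitor control yields IC50.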

chymase = molecular target: T2, chymase (Homo sapiens, UniProt P23946); assay: Surface plasmon resonance (Biacore T100), aptamer immobilized on SA chip, chymase injected as analyte; assay type: binding; design: key: ++: a sequence that binds to chymase significantly more strongly than the negative control 30N; settings: Table 2; same manner as Example 1, running buffer solution C; compared with 30N
T2 sequence (P23946 22-247): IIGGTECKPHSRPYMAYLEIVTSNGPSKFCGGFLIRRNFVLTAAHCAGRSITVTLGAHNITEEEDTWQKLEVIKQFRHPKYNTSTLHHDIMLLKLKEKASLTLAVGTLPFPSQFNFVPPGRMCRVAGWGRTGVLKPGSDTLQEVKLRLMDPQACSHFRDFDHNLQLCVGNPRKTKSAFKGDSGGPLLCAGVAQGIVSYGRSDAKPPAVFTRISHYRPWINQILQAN
Description: Binding strength is measured using Biacore T100 (manufactured by GE Healthcare). In a method of measurement, the aptamer is first immobilized onto a sensor chip, the amount immobilized being about 1000 RU. 20 μL of a chymase solution for analyte, prepared at 0.2 μM, is injected, and the binding of chymase to the aptamer is detected. An RNA comprising a random nucleotide sequence of 30 or 40 nucleotides is used as a negative control.
The binding activities against chymase of the nucleic acids shown by SEQ ID NO: 4-20 and 22-34 were determined by the surface plasmon resonance method using Biacore T100 (manufactured by GE Healthcare). The sensor chip used was the SA chip, which had streptavidin immobilized thereon. Bound thereto was about 1500 RU of a 16-nucleotide Poly dT with biotin bound to the 5′ end thereof. […] 20 μL of chymase for analyte, prepared at 0.2 μM, was injected. Solution A was used as a running buffer.
The binding activities against chymase of the nucleic acids shown by SEQ ID NO: 38-48 were evaluated by the surface plasmon resonance method. In the evaluations for SEQ ID NO: 38-48, measurements were taken in the same manner as Example 1. Solution C was used as a running buffer.

B1: 45 (nucleic acid)
chain: GGGAGCAGGAGAGAGGUCAGAUGGACCACCGAUGGGCAAGAUAGAGUUAAAUGCCUAUGCGUGCUAGUGUGA
modifications: aptamer; 2'-fluoro at CU, RNA at AG, backbone not given here
- IC50 [1]: 74 ± 11 nM
- Binding activity as determined using Biacore (chymase): ++

B2: 46 (nucleic acid)
chain: GGGAGCAGGAGAGAGGUCAGAUGGGACAGAUAGAGUUAAAGUCCGUUACGUGGCCUAUGCGUGCUAGUGUGA
modifications: aptamer; 2'-fluoro at CU, RNA at AG, backbone not given here
- IC50 [1]: 38 ± 4 nM
- Binding activity as determined using Biacore (chymase): ++

B3: 47 (nucleic acid)
chain: GGGAGCAGGAGAGAGGUCAGAUGGUGAUAGAUAGAGUUAAAAUCGCUGAAUGGCCUAUGCGUGCUAGUGUGA
modifications: aptamer; 2'-fluoro at CU, RNA at AG, backbone not given here
- IC50 [1]: 58 ± 12 nM
- Binding activity as determined using Biacore (chymase): ++

B4: 48 (nucleic acid)
chain: GGGAGCAGGAGAGAGGUCAGAUGUGAAGAUAGAGAUAAAUCACAUACAGUCGGCCUAUGCGUGCUAGUGUGA
modifications: aptamer; 2'-fluoro at CU, RNA at AG, backbone not given here
- IC50 [1]: 95 ± 18 nM
- Binding activity as determined using Biacore (chymase): ++

B5: 38 (nucleic acid)
chain: GGGAGCAGGAGAGAGGUCAGAUGGAUAGAGUUAAGAUCUGGCUGGCGCAUUAGCCUAUGCGUGCUAGUGUGA
modifications: aptamer; 2'-fluoro at CU, RNA at AG, backbone not given here
- IC50 [1]: 50 ± 12 nM
- Binding activity as determined using Biacore (chymase): ++

B6: 39 (nucleic acid)
chain: GGGAGCAGGAGAGAGGUCAGAUGGUUACGGAUAGAGUUAAGGUAACGGUACGGCCUAUGCGUGCUAGUGUGA
modifications: aptamer; 2'-fluoro at CU, RNA at AG, backbone not given here
- Binding activity as determined using Biacore (chymase): ++

B7: 40 (nucleic acid)
chain: GGGAGCAGGAGAGAGGUCAGAUGAACGGAUAGAGCUAAGAGUUCGUCAGAGGGGCCUAUGCGUGCUAGUGUGA
modifications: 2'-fluoro at CU, RNA at AG, backbone not given here
- IC50 [1]: 140 ± 85 nM
- Binding activity as determined using Biacore (chymase): ++
